Source: the Human Domainome abundance scans (Beltran et al. 2025)
± gives the uncertainty stated by the source.

B1: Tripartite motif-containing protein 44, residues 174 to 218; numbered along this chain, Q96DX7 (parent)
chain: VAKRKCPDHGLDLSTYCQEDRQLICVLCPVIGAHQGHQLSTLDEA

Variants of: B1
Assay: abundance fitness (aPCA) (normalised: wild type 0, dead -1); higher = more abundant; growth selection in yeast, the domain comes from the species named
Settings: Homo sapiens

| Variant | abundance fitness |
| --- | --- |
| VAKRKCPDHGLDLSTYCQEDRQLICVLCPVGGAHQGHQLSTLDEA [I31G] | -0.002 ± 0.026 |
| VAKRKCPDHGLDLSTYCQEDRQLICVLCPVVGAHQGHQLSTLDEA [I31V] | 0.032 ± 0.027 |
| VAKRKCPDHGLDLSTYCQEDRQLICVLCPVDGAHQGHQLSTLDEA [I31D] | 0.062 ± 0.04 |
| VAKRKCPDHGLDLSTYCQEDRQLICVLCPVNGAHQGHQLSTLDEA [I31N] | 0.059 ± 0.037 |
| VAKRKCPDHGLDLSTYCQEDRQLICVLCPVKGAHQGHQLSTLDEA [I31K] | 0.067 ± 0.036 |
| VAKRKCPDHGLDLSTYCQEDRQLICVLCPVCGAHQGHQLSTLDEA [I31C] | -0.103 ± 0.031 |
| VAKRKCPDHGLDLSTYCQEDRQLICVLCPVSGAHQGHQLSTLDEA [I31S] | 0.097 ± 0.028 |
| VAKRKCPDHGLDLSTYCQEDRQLICVLCPVTGAHQGHQLSTLDEA [I31T] | 0.052 ± 0.029 |
| VAKRKCPDHGLDLSTYCQEDRQLICVLCPVAGAHQGHQLSTLDEA [I31A] | 0.022 ± 0.028 |
| VAKRKCPDHGLDLSTYCQEDRQLIPVLCPVIGAHQGHQLSTLDEA [C25P] | -0.649 ± 0.054 |
| VAKRKCPDHGLDLSTYCQEDRQLIVVLCPVIGAHQGHQLSTLDEA [C25V] | -1.08 ± 0.055 |
| VAKRKCPDHGLDLSTYCQEDRQLIWVLCPVIGAHQGHQLSTLDEA [C25W] | -1.02 ± 0.054 |
| VAKRKCPDHGLDLSTYCQEDRQLIMVLCPVIGAHQGHQLSTLDEA [C25M] | -0.968 ± 0.079 |
| VAKRKCPDHGLDLSTYCQEDRQLIHVLCPVIGAHQGHQLSTLDEA [C25H] | -0.798 ± 0.088 |
| VAKRKCPDHGLDLSTYCQEDRQLIIVLCPVIGAHQGHQLSTLDEA [C25I] | -1.11 ± 0.22 |
| VAKRKCPDHGLDLSTYCQEDRQLIYVLCPVIGAHQGHQLSTLDEA [C25Y] | -0.601 ± 0.12 |
| VAKRKCPDHGLDLSTYCQEDRQLILVLCPVIGAHQGHQLSTLDEA [C25L] | -1.25 ± 0.1 |
| VAKRKCPDHGLDLSTYCQEDRQLIRVLCPVIGAHQGHQLSTLDEA [C25R] | -0.728 ± 0.031 |
| VAKRKCPDHGLDLSTYCQEDRQLIKVLCPVIGAHQGHQLSTLDEA [C25K] | -0.634 ± 0.043 |

| Variant | abundance fitness |
| --- | --- |
| VAKRKCPDHGLDLSTYCQEDRQLIQVLCPVIGAHQGHQLSTLDEA [C25Q] | -0.65 ± 0.043 |
| VAKRKCPDHGLDLSTYCQEDRQLICVLCEVIGAHQGHQLSTLDEA [P29E] | -0.031 ± 0.028 |
| VAKRKCPDHGLDLSTYCQEDRQLICVLCSVIGAHQGHQLSTLDEA [P29S] | 0.012 ± 0.031 |
| VAKRKCPDHGLDLSTYCQEDRQLICVLCHVIGAHQGHQLSTLDEA [P29H] | -0.016 ± 0.038 |
| VAKRKCPDHGLDLSTYCQEDRQLICVLCAVIGAHQGHQLSTLDEA [P29A] | -0.097 ± 0.027 |
| VAKRKCPDHGLDLSTYCQEDRQLICVLCCVIGAHQGHQLSTLDEA [P29C] | -0.2 ± 0.039 |
| VAKRKCPDHGLDLSTYCQEDRQLICVLCYVIGAHQGHQLSTLDEA [P29Y] | -0.098 ± 0.056 |
| VAKRKCPDHGLDLSTYCQEDRQLICVLCGVIGAHQGHQLSTLDEA [P29G] | -0.083 ± 0.026 |
| VAKRKCPDHGLDLSTYCQEDRQLICVLCMVIGAHQGHQLSTLDEA [P29M] | -0.04 ± 0.034 |
| VAKRKCPDHGLDLSTYCQEDRQLICVLCRVIGAHQGHQLSTLDEA [P29R] | -0.054 ± 0.027 |
| VAKRKCPDHGLDLSTYCQEDRQLICVLCNVIGAHQGHQLSTLDEA [P29N] | -0.064 ± 0.05 |
| VAKRKCPDHGLDLSTYCQEDRQLICVLCKVIGAHQGHQLSTLDEA [P29K] | -0.004 ± 0.039 |
| VAKRKCPDHGLDLSTYCQEDRQLICVLCTVIGAHQGHQLSTLDEA [P29T] | -0.021 ± 0.036 |
| VAKRKCPDHGLDLSTYCQEDRQLICVLCFVIGAHQGHQLSTLDEA [P29F] | -0.198 ± 0.047 |
| VAKRKCPDHGLDLSTYCQEDRQLICVLCDVIGAHQGHQLSTLDEA [P29D] | -0.077 ± 0.034 |
| VAKRKCPDHGLDLSTYCQEDRQLICVLCQVIGAHQGHQLSTLDEA [P29Q] | -0.071 ± 0.033 |
| VAKRKCPDHGLDLSTYCQEDRQLICVLCWVIGAHQGHQLSTLDEA [P29W] | -0.207 ± 0.03 |
| VAKRKCPDHGLDLSTYCQEDRQLICVLCIVIGAHQGHQLSTLDEA [P29I] | -0.168 ± 0.049 |
| VAKRKCPDHGLDLSTYCQEDRQLICVLCLVIGAHQGHQLSTLDEA [P29L] | -0.117 ± 0.029 |

| Variant | abundance fitness |
| --- | --- |
| VAKRKCPDHGLDLSTYCQEDRQLICVLCVVIGAHQGHQLSTLDEA [P29V] | -0.133 ± 0.026 |
| VAKRKCPDHGLDLSTYCQEDRQLICVLCPGIGAHQGHQLSTLDEA [V30G] | -0.144 ± 0.026 |
| VAKRKCPDHGLDLSTYCQEDRQLICVLCPQIGAHQGHQLSTLDEA [V30Q] | 0.045 ± 0.031 |
| VAKRKCPDHGLDLSTYCQEDRQLICVLCPHIGAHQGHQLSTLDEA [V30H] | -0.046 ± 0.05 |
| VAKRKCPDHGLDLSTYCQEDRQLICVLCPSIGAHQGHQLSTLDEA [V30S] | 0.005 ± 0.028 |
| VAKRKCPDHGLDLSTYCQEDRQLICVLCPPIGAHQGHQLSTLDEA [V30P] | -0.369 ± 0.032 |
| VAKRKCPDHGLDLSTYCQEDRQLICVLCPTIGAHQGHQLSTLDEA [V30T] | 0.051 ± 0.031 |
| VAKRKCPDHGLDLSTYCQEDRQLICVLCPCIGAHQGHQLSTLDEA [V30C] | -0.073 ± 0.039 |
| VAKRKCPDHGLDLSTYCQEDRQLICVLCPFIGAHQGHQLSTLDEA [V30F] | -0.133 ± 0.039 |
| VAKRKCPDHGLDLSTYCQEDRQLICVLCPRIGAHQGHQLSTLDEA [V30R] | 0.019 ± 0.026 |
| VAKRKCPDHGLDLSTYCQEDRQLICVLCPLIGAHQGHQLSTLDEA [V30L] | -0.076 ± 0.027 |
| VAKRKCPDHGLDLSTYCQEDRQLICVLCPNIGAHQGHQLSTLDEA [V30N] | -0.057 ± 0.05 |
| VAKRKCPDHGLDLSTYCQEDRQLICVLCPKIGAHQGHQLSTLDEA [V30K] | 0.096 ± 0.03 |
| VAKRKCPDHGLDLSTYCQEDRQLICVLCPMIGAHQGHQLSTLDEA [V30M] | -0.008 ± 0.034 |
| VAKRKCPDHGLDLSTYCQEDRQLICVLCPAIGAHQGHQLSTLDEA [V30A] | -0.011 ± 0.028 |
| VAKRKCPDHGLDLSTYCQEDRQLICVLCPIIGAHQGHQLSTLDEA [V30I] | -0.032 ± 0.046 |
| VAKRKCPDHGLDLSTYCQEDRQLICVLCPEIGAHQGHQLSTLDEA [V30E] | 0.013 ± 0.03 |
| VAKRKCPDHGLDLSTYCQEDRQLICVLCPWIGAHQGHQLSTLDEA [V30W] | -0.159 ± 0.028 |
| VAKRKCPDHGLDLSTYCQEDRQLICVLCPDIGAHQGHQLSTLDEA [V30D] | 0.001 ± 0.047 |
